What all share (details): both partners purified
Assay [1] deals with T1, murine Importin α with the Importin β binding domain (IBB) deleted, Impα(70–529) (murine, UniProt P52293 70-529). The experiment in a line: fluorescence polarisation; direct titration: serial dilutions of Impα into 100 nM FITC-labeled peptide; FP buffer (20 mM Tris pH 7.7, 125 mM NaCl, 1 mM EDTA, 2 mM TCEP, 5% sucrose, 10 mM NaN3); room temperature (legend: 25 °C); apparent dissociation constants, single-site fit. In general terms: Fluorescence polarisation rises when a labelled molecule tumbles more slowly, as on binding a larger partner.

Assay [2] has as its target Impα(70–529)(W184R/W231R) (murine, UniProt P52293 70-529, W184R | W231R). Described as above.
In assay [3] the target is T1, murine Importin α with the Importin β …. The experiment in a line: fluorescence polarisation; competition: serial dilutions of unlabeled peptide into 150 nM Impα(70–529) and 100 nM FITC-labeled FL-NLS peptide in FP buffer; fit to a competitive binding equation; apparent.

No end group written: not given here. *: point of attachment. FITC = O=C1OC2(c3ccc(O)cc3Oc3cc(O)ccc32)c2ccc(NC(=S)*)cc21

B1: FL-NLS: FITC-XRCC1 (241–276) (peptide)
peptide: {FITC}-SPKGKRKLDLNQEEKKTPSKPPAQLSPSVPKRPKLP
notes: human XRCC1 residues 241-276, the bipartite NLS; also called Full XRCC1 NLS ligand; FITC-labeled bipartite XRCC1 NLS; source: synthetic peptide, bought: Genscript
On to B1, for which the Kd in assay [1] is 108 nM; in assay [2], 7400 nM.

B2: M2: XRCC1 (268-276)-G-Lys-FITC (peptide)
peptide: SVPKRPKLPGK(FITC)
notes: added G-Lys that carries the FITC label; also called major motif ligand; major motif peptide; source: synthetic peptide, bought: Genscript
With B2, the Kd in assay [1] was determined as 2100 nM; in assay [2] it was 690000 nM.

B3: NLS-E4: XRCC1(241–276)/(T257E/S259E/S266E/S268E) quadruple variant (peptide)
peptide: SPKGKRKLDLNQEEKKEPEKPPAQLEPEVPKRPKLP
notes: human XRCC1 residues 241-276 with four glutamate substitutions that mimic phosphorylation; also called NLS(T257E/S259E/S266E/S268E)
B3: in assay [3], the Kd was 604 nM.

The values are drawn from article PMC4548243, “Nuclear Localization of the DNA Repair Scaffold XRCC1: Uncovering the Functional Role of a Bipartite NLS” (Scientific Reports, 2015).
